What was measured:
[1] = target: T1, Peptide-N […] (SEQ ID NO: 177), HCMV US28 ECD1 (Human cytomegalovirus, UniProt P69332); assay: ELISA, binding to Peptide-N (Bio-Peptide-N / Peptide-N-BSA coating)
T1 construct: Peptide-N was prepared via chemical synthesis: […]; made in house; host or cells: chemical synthesis
Method: (§1) Microtiter plate wells were coated with 100 μl of the solution containing: (i) Bio-Peptide-N; or (ii) Bio-Peptide-1 and Bio-Peptide-2; at a concentration of between 1-10 μg/ml in coating buffer, consisting of Na2CO3, 1.5 g and NaHCO3, 2.93 g in 1 L of distilled water in pH 9.6, and then incubated for 1-2 hours at room temperature. The plate was washed 3 times in wash buffer consisting of PBS containing 0.05% v/v Tween-20 and blotted with paper towels thereafter. 150 μl of blocking solution containing Phosphate buffered saline (PBS) containing 1% w/v BSA, was added to each well and the plate was incubated for 2 hours at 37° C. The wells were washed 4 times in wash buffer and blotted on paper towels after the last wash. 100 μl of antibody dilution was added to each well and the plate was incubated for 1 hour at 37° C. and thereafter washed 3 times in wash buffer. 100 μl enzyme-conjugated secondary antibody (appropriately diluted in wash buffer) was added to each well and the plate was incubated for 1 hour at 37° C. The wells were then again washed 3 times in wash buffer and blotted with paper towels after the last wash. […] The absorbance values were read immediately at the appropriate wavelength and the data analyzed by Cmax Plus, Molecular Devices, San Jose, CA 95134, USA,

BSA = BSA (Bos taurus, UniProt P02769); assay: ELISA, BSA coating (control); type: binding; conditions: ECD1 subclones
BSA, sequence (P02769 25-607): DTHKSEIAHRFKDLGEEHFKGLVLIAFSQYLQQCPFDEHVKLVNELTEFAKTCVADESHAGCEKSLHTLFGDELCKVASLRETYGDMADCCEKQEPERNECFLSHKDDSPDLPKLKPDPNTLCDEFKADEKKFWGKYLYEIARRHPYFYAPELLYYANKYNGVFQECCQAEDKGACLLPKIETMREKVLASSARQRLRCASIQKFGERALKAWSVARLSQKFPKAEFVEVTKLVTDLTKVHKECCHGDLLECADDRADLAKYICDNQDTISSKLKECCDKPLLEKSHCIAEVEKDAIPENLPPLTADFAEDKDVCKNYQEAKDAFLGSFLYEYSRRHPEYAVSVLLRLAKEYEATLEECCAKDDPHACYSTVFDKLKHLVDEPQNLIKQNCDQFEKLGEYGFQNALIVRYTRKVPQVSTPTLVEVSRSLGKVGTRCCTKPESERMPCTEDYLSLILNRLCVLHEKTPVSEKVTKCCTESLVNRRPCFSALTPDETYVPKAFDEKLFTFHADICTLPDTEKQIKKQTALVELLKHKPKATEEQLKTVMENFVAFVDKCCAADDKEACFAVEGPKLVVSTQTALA
Method: as §1

[2] = target: T2, Peptide-1 […] (SEQ ID NO: 6, 4N variant of ECD3 of US28) (Human cytomegalovirus, UniProt P69332, D170N); type: binding, human cytomegalovirus (HCMV); conditions: both ECD3 variants compared
T2 construct: made in house; host or cells: chemical synthesis
Excerpt: The binding specificity of a binding molecule of the first aspect of the present invention having anti-ECD3 binding specificity in addition to the anti-SEQ ID NO: 177 specificity (and/or a second binding molecule having anti-ECD3 binding specificity with which a binding molecule of the first aspect of the present invention may be combined in a formulation) to an epitope within ECD3 of a US28 protein may, for example, be assessed in an ELISA, such as a methodology as described in the examples of this application, or by a variant of said methodology, such as by coating peptides derived from ECD3 (such as Bio-Peptide 1 and/or Bio-Peptide-2) on a first set of wells in a microtiter plate and coating a negative control (such as BSA) in a second set of wells in a microtiter plate. The first set of wells may optionally be further subdivided into a first subgroup of the first set of wells that comprises the sequence of a 4N-variant from ECD3 of US28, and a second subgroup of the first set of wells that comprises the sequence of a 4D-variant from ECD3 of US28, to permit the determination of the relative binding specificity to each variant. […]

[3] = target: T3, US28 of HCMV strain TB40/E on CHO cells (Human cytomegalovirus, UniProt P69332, A8T/D15E/E18L/V24T); assay: FACS binding to CHO cells expressing TB40/E form of US28; conditions: FIG. 21C
T3 construct: expressed in transfected cells; host or cells: CHO cells
Excerpt: The plasmids carrying the DNA for the TB40/E, VHL/E, and Merlin constructs and mutated US28 strain (SEQ ID Nos: 254, 272, 273 and 255, respectively) were also manufactured in the similar manner.
Flowcytometry was used to analyze cell surface binding by the US28 antibodies. Upon cell harvest, adherent non-infected and US28 overexpressing or HCMV infected cells were washed three times with cell staining buffer (phosphate-buffered saline (PBS (Amresco, Cleveland, 44139, USA) added 0.5% BSA and 0.05% Sodium Azide (NaN3)). The cells were trypisinized and then resuspended in DMEM with 10% FBS to inhibit the action of trypsin. The cells were then pelleted at 400×g for 10 minutes and washed three times in cell staining buffer. Cell viability and cell concentration were measured by tryphan blue viability assay and a cell counter (Countess, Invitrogen, Carlsbad, CA 92008, USA). The cell suspension was adjusted to 1×10^6 cells/mL with ice-cold cell staining buffer. The cells were blocked in 1 ml 10% FBS or 1% BSA in PBS per 1×10^6 cells, vortexed briefly, and incubated for 10-30 minutes to eliminate non-specific staining. The cells were then stained with the respective antibodies and appropriate negative controls. […]

[4] = test system: HCMV infected lung tissue; assay: Immunohistochemistry (IHC) on human lung tissue; conditions: normal lung tissue with HCMV DNA positive macrophages
Excerpt: FIG. 12. […] binding in 1:400 dilution (w/v) to HCMV-infected human tissues were studied by using immunohistochemistry analysis (IHC). […] The arrows (in the non-colour version of this figure) mark the US28-13-5G6-1D3 rAb cytoplasmic staining on typical HCMV infected alveolar cells with the characteristic cytomegalo effect in the HCMV positive control slide. […] C. The same macrophages show positive HCMV DNA in the same lung biopsy, whereas there are no HCMV DNA signals in normal alveolar cells, which is coherent with the US28 staining in the same sample. […] E. The IE staining is negative for the alveolar HCMV positive macrophages in normal lung tissue. […] Colour versions of FIG. 12 are also provided alongside the non-colour versions.
FIG. 25. The binding of the N-terminal antibodies to HCMV infected lung tissue and HCMV negative myometrium were studied by IHC. […] C. […] E. Mouse lung tissue with staining IgG was used as negative control antibody. […] As with the US28-13-5G6-1D3 rAb, the ECD1-binding molecules stained typical HCMV infected cells with the characteristic cytomegalo effect, showing strong cytoplasmic or membranous staining in these cells, as the US28 protein is known to be located in cytoplasm and cell membrane, and stained positively for some tissue macrophages, which are known to be carriers of latent or reactivated HCMV.

B1: 7B1F3: mouse IgG1 kappa antibody against US28 ECD1 Peptide-N; VH SEQ ID NO: 211, VL SEQ ID NO: 213 (antibody, V domains shown)
VH: EVQLQQSGAELAKPGASVKMSCKASGYTFTNYWMHWVKQRPGQGLEWIGYVNPRTGYTEYNQKFKDKATLTADKSSRTAYMQLSSLTSEDSAVYSCARILNGTGFAYWGQGTLVTVSA
VL: DIVLTQSPSSLTVSVGEKFTMSCKSSQSLLYSSNQKNYLAWYQQKPGQSPKLLIYWASTRESGVPDRFTGSGSGTDFTLAISSVKPEDLAIYYCQQYYSFPLTFGAGTKLEIK
modifications: Mature form of VH sequence of 7B1F3, without the leader sequence; Mature form of VL sequence of 7B1F3, without the leader sequence
absorbance, Coating: Peptide-N-BSA ([1]; ELISA absorbance, ECD1 subclones): 2.7989 | qualitative ELISA binding to Bio-Peptide-N ([1]; recombinant antibodies): equal, strong and high binding affinity | absorbance, Coating: BSA (BSA): 0.0474

B2: US28-13-5G6-1D3: monoclonal antibody against ECD3 of HCMV US28; VH SEQ ID NO: 12, VL SEQ ID NO: 18; rAb is the recombinant product (antibody, V domains shown)
VH: EVKLVESGGGLVQPGGSLRLACATSGFTFTDYYMSWVRQPPGKALEWLGFIRSKANGYTTEYSASVKGRFTISRDNSQSILYLQMNTLRSEDSATYYCARDERRTAWLAYWGQGTLVTVSA
VL: DVLMTQTPLSLPVSLGDQASISCRSSQSIVHSNGNTYLDWYLQKPGQSPKLLIYKVSNRFSGVPDRFSGSGSGTDFTLKISRVEAEDLGVYYCFQGSHVPTWTFGGGTKLEIK
modifications: Mature form of VH sequence of 1D3, without the leader sequence; Mature form of VL sequence of 1D3, without the leader sequence
notes: monoclonal antibody against ECD3 of HCMV US28; rAb is the recombinant product
qualitative ELISA binding to Bio-Peptide-1 (4N) and Bio-Peptide-2 (4D) [2]: equal qualitative binding

B3: 13-5G6-1D3: mouse monoclonal IgG1 kappa antibody against US28 ECD3; VH SEQ ID NO: 12, VL SEQ ID NO: 18 (antibody, V domains shown)
VH: B2 VH
VL: B2 VL
modifications: Mature form of VH sequence of 1D3, without the leader sequence; Mature form of VL sequence of 1D3, without the leader sequence
% change in absolute levels of binding between DB and TB40/E forms of US28 [3]: less than 10% | IHC staining of normal lung tissue [4]: positive US28 staining for macrophages, but negative staining for alveolar cells

From patent US20250296984A1, “THERAPEUTIC AND DIAGNOSTIC AGENTS AND USES THEREOF” (priority 2022, published 2025)
